Source: the supplement of paper PMC12042874
± gives the uncertainty stated by the source.

test: amyloid nucleation score (Sup35N fusion, yeast selection) (log enrichment); library NNK3; higher = more nucleation; inactive = no reads after selection
Procedure, shortened: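 In psi-negative yeast, Sup35N fusions carrying peptides of 20 random codons were induced with 100 μM copper sulfate for 24 hours. The cells then grew 7 days at 30°C on medium lacking adenine and uracil, and plasmid inserts from input and output were Illumina-sequenced, excluding sequences with under 100 input reads. Nucleation score is the DiMSum log enrichment of output over input reads, centred on the mode score of non-aggregating sequences.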

| Substance | amyloid nucleation score |
| --- | --- |
| GTYVKLLEVFTSFSWFRRFF | inactive |
| RDTYMGREVCFNNTPERF | 0.21 ± 0.77 |
| FNKGYV | inactive |
| SNEHAVVYS | inactive |
| FWFWMIVDNRWYSLAVEARW | -0.304 ± 0.8 |
| SDGNSMLGDFRVRMVCHMLL | inactive |
| IATIFGVHFRQNDDWIVALY | inactive |
| NFLYWHRWVVWSSMSSYRKP | -0.348 ± 0.63 |
| KLYIALMDKYPGATSMFQPV | 1.18 ± 0.23 |
| VILQMT | inactive |
| LLSREERTAVLLCTETQ | inactive |
| GIGCDLFRCADTRWIVLPSM | inactive |
| SLYRKGRHFGGCSCSIVRFR | 0.319 ± 0.78 |
| FRYRLWAMRDVKHSYDFSLW | inactive |
| WGSLMFRVYTKMFEALERVL | inactive |
| IYDCNRDIGDVLTSSDPPHA | inactive |
| PRYRSLWFAKHMLAVLGSKW | inactive |
| RRQLLVGIP | inactive |
| AWWMLN | inactive |
| LQRPASEFSERGA | inactive |
| DLAWPRMPTIQARVEQYCLI | inactive |
| VHVRWVVRMVSWKYLAGILL | inactive |
| FCRRSGSFVLDMTYWGMYRP | 0.156 ± 0.32 |
| HSIIVEWKC | inactive |

| Substance | amyloid nucleation score |
| --- | --- |
| TGHWNSDWFLI | inactive |
| HHLGRSLGIVTSLQLGIILL | inactive |
| QTTLSYIVCMQSRQLRNRAW | 0.848 ± 0.099 |
| RTSFLGVID | inactive |
| FEIYECQLAC | inactive |
| VQRISTIMINV | inactive |
| IISMFYSSKA | inactive |
| LKSST | inactive |
| HCRDEYYIYNRI | inactive |
| LYWATGLGVNFKFNLCLDDA | inactive |
| LKGTCFLIPYLVTSGSSLVS | inactive |
| DRIAHF | inactive |
| WRTSMVASILRVRWEYLKWK | inactive |
| GLTLFWITAVAQAWDWLDPL | inactive |
| LNWGLVTDSTFIWLMDTLRL | 1.05 ± 0.11 |
| MVYGVSAVEVKSSLVGWVVA | inactive |
| FCYSDFIPLWIR | inactive |
| YEARSWE | inactive |
| LNPNYRNAYLNYRVLFY | inactive |
| LLNVTHSVAMTRTHGGVTYW | 0.776 ± 0.17 |
| ECWKVGKGLRSE | inactive |
| IINIRVIVSSLFPFLSSEFS | inactive |
| KIKSLELMYDISERNF | inactive |
| LNTPPQVSMGSEGLSFNMSF | inactive |

| Substance | amyloid nucleation score |
| --- | --- |
| FTWIFRFMPIWHACDKRVFE | 1.71 ± 0.088 |
| IFTDLVA | inactive |
| NGCTW | inactive |
| TFTTFRWDEGVLLYLYERVG | inactive |
| FSSCDHRFWTFLIKFMLLAL | inactive |
| LASVLEYESWLSLFIWQSKH | 0.195 ± 0.34 |
| DVNIRSSGDNTIAFKYYTMK | 0.14 ± 0.38 |
| ADCPCYVTGCWLSYWMLYI | inactive |
| TWCAHS | inactive |
| KIDLVGTLVMTIFNAQMQYE | 2.06 ± 0.083 |
| RSICV | inactive |
| VSMIKRLGHCGVLGGKTYRV | -0.671 ± 0.8 |
| YSNVNALISSTSLYLCCCML | 0.644 ± 0.23 |
| WCLNGSMYLLAVSSG | inactive |
| SDCSGYLQ | inactive |
| AYAQSYND | inactive |
| INVVIRSSHFECTGC | 1.15 ± 0.11 |
| SDMTYHQWGTVYTLD | inactive |
| TKVFVLHSYDCTIKTSGFNS | inactive |
| KRSSSAAIKKRIIVQIDGNR | inactive |
| ADMGGSVGHVSNKSVSSNLL | inactive |
| GATNDH | inactive |
| IDTVNFKVLHVGI | inactive |
| SWLCPFNGA | inactive |

| Substance | amyloid nucleation score |
| --- | --- |
| EGETTEVLTLVVWRKVINNS | inactive |
| SLKCLLLVMTCSLTSHAPPA | inactive |
| SIESMCPVYILVVAPEMCR | inactive |
| HVTQLNGVAYSCEI | inactive |
| LKNFKSSAHLMQMIVLNFAY | inactive |
| QIQGAGHGM | 0.534 ± 0.21 |
| NENTNLIRLNGTDMRAYKLW | inactive |
| SRNPEAEHRIIMRAQSTGYF | inactive |
| ASLRYYGMAVVSSVYKMVVV | inactive |
| NCIIR | inactive |
| SLSLNIQGSNYFLHIVNIGR | inactive |
| VSVRYPLNKECFYDCL | inactive |
| HSLIVYHLS | inactive |
| VTRMDGYVAFISNHSFKSVY | 1.36 ± 0.14 |
| IEQRLRLKSLSYFFINDVKI | inactive |
| YSMIKFSISAD | inactive |
| VVLFYDSCSG | inactive |
| HTYDCAAFCPAGAGNR | inactive |
| AVTYENRSNLIVKVLVI | -0.363 ± 0.27 |
| GFTRFFYLSRLMVGNMI | inactive |
| IIVTKGAMR | -0.87 ± 1.7 |
| EHNYSTASITSTLSTPNRAI | inactive |
| FYYANMTRSKILAPFSRPSR | inactive |
| CSVQVGITSCSNGGYSNVYA | inactive |

| Substance | amyloid nucleation score |
| --- | --- |
| GTDVRS | -0.272 ± 0.43 |
| YMGLTLSVMRPGMTYFPKMF | inactive |
| WVESESQETHHIAM | -0.113 ± 1 |
| CNLDLVANT | inactive |
| QYFHMTWSVIVYEIGVRPYI | -0.449 ± 0.8 |
| YVSPNF | inactive |
| PYRFLESTSRALYFTFSYTF | inactive |
| MLCKYTCLICYGYRTKRSSE | 0.684 ± 0.17 |
| SYFTVHHSCLGHTTQHVMLS | inactive |
| VIWGTPQFSFAEVREFDLVH | inactive |
| KVRNPWMRIDTVCRFFILVV | inactive |
| IEWVRNTLSISLIERYRLNG | inactive |
| DLRVPLNTFRNYHVSRELVR | inactive |
| SCHLEVLFISLFD | inactive |
| AVSLCSDLYFVFGKWFGCEL | 1.11 ± 0.11 |
| YIYLTQGTARNIDYT | 0.047 ± 0.43 |
| LNRVINYLIKLYFAGWVSHD | inactive |
| GVKGFQRQKRIFFGFCEFKV | inactive |
| FLKYTITHLCSRPRIYLGIS | 0.16 ± 0.22 |
| NTSWLNSWATVITIWPYCAL | 0.724 ± 0.2 |
| FSFTRNERIDSLCSNAHSFT | inactive |
| LMFRTLFK | 0.062 ± 0.62 |
| SSIGCPYLSYDYCFPTMWIW | inactive |
| NIFRMRNQVIRSVLNVHVMT | inactive |
